In paper PMC10307800, “Structure of human CALHM1 reveals key locations for channel regulation and blockade by ruthenium red” (Nature Communications, 2023):
Values joined by “and” are separate entries in the source; they are usually repeats but may differ in a detail not shown here. Equal entries are not always repeated.

Experiments:
[1] = target: chicken CALHM1Δct (residues 1-291, C-terminal Strep-II tag) (chicken); test: cryo-EM 2D classification; 'top' views of 2D classification of the same nanodisc samples
[2] = target: chicken CALHM1Δct (residues 1-291, C-terminal Strep-II tag) (chicken); test: cryo-EM structure; single-particle 3D reconstruction in lipid nanodiscs (soybean polar extract, MSP2N2); chicken: 20 mM Tris pH 8.0, 150 mM NaCl, 1 mM EDTA; human: 20 mM HEPES-NaOH pH 7.5, 200 mM NaCl, 1 mM EDTA
[3] = target: human CALHM1Δct-Ile109Trp (C-terminal Strep-II tag) (human) (UniProt Q8IU99); test: cryo-EM structure; single-particle reconstruction in lipid nanodiscs, 20 mM HEPES-NaOH pH 7.5, 200 mM NaCl; with RuR (50 µM RuR, 1 mM EGTA; C8 and C1 maps) and RuR-free (1 mM EDTA)
[4] = target: killifish CALHM1Δct (killifish); test: cryo-EM 2D classification; reanalysis of the publicly available dataset EMPIAR #10444
[5] = target: the molecule itself; test: cryo-EM 2D classification; 'top' views of 2D classification of the same nanodisc samples
[6] = target: the molecule itself; test: cryo-EM structure; single-particle 3D reconstruction in lipid nanodiscs (soybean polar extract, MSP2N2); chicken: 20 mM Tris pH 8.0, 150 mM NaCl, 1 mM EDTA; human: 20 mM HEPES-NaOH pH 7.5, 200 mM NaCl, 1 mM EDTA

Molecule: chicken CALHM1Δct (residues 1-291, C-terminal Strep-II tag) (domain or fragment)
- stoichiometry N [1]: 8 and 9
- stoichiometry N [2]: 8

Molecule: human CALHM1Δct-Ile109Trp (C-terminal Strep-II tag) (from UniProt Q8IU99 1-303) (domain or fragment)
- stoichiometry N [3]: 8

Molecule: killifish CALHM1Δct (domain or fragment)
- stoichiometry N [4]: 8 and 9

B1: human CALHM1Δct (calcium homeostasis modulator 1, residues 1-303, C-terminal Strep-II tag) (domain or fragment, UniProt Q8IU99 1-303, looked up)
chain: MMDKFRMIFQFLQSNQESFMNGICGIMALASAQMYSAFDFNCPCLPGYNAAYSAGILLAPPLVLFLLGLVMNNNVSMLAEEWKRPPGRRAKDPAVLRYMFCSMAQRALIAPVVWVAVTLLDGKCFLCAFCTAVPVSALGNGSLAPGLPAPELARLLARVPCPEIYDGDWLLAREVAVRYLRCISQALGWSFVLLTTLLAFVVRSVRPCFTQAAFLKSKYWSHYIDIERKLFDETCTEHAKAFAKVCIQQFFEAMNHDLELGHTHGTLATAPASAAAPTTPDGAEEEREKLRGITDQGTMNRLL
notes: calcium homeostasis modulator 1 (CALHM1), human, residues 1-303 (C-terminal truncation; residues 303-346 follow the CTH in the whole protein); Octamer in the 3D reconstruction; nonameric particles were also seen in 2D classes; also called hCALHM1Δct; hCALHM1∆ct; source: HEK293S GnTI- cells, baculovirus infection; purified (Strep-Tactin, SEC), reconstituted into lipid nanodiscs (MSP2N2, soybean …)
- stoichiometry N [5]: 9
- stoichiometry N [6]: 8
